Measurements taken from patent US6531296 (UNIVERSITY OF NORTH CAROLINA AT CHAPEL HILL, dated 2003).

Molecular target: T1, Src protein (p60^src), in vitro translated (UniProt P12931 2-536, limits assumed)
T1 construct: also called c-Src
Test: in vitro translated Src on Rb-GST fusion proteins; data not shown
Experimental: The same procedure was followed for Rb in vitro binding assays, except that the Rb-GST fusion proteins were incubated in the in vitro translated forms of Rak in NP-40 buffer containing 0.5% fraction V bovine serum albumin (Boehringer Mannheim). After three washes with the same buffer, bound proteins were analyzed by SDS-PAGE and detected by autoradiography. Rak was in vitro translated using the TnT-coupled transcription/translation system (Promega) with 2 ug of the pAlt-Rak plasmid. The Rak (1–152) construct was prepared by digesting the pAlt-Rak plasmid with EcoRI to obtain the 5' EcoRI fragment of Rak.
An in vitro binding reaction was then used to further identify the essential components for the Rak-Rb interaction. In vitro translated Rak was incubated with two Rb-GST fusion proteins, where one encoded amino acids 379–928, spanning the A/B pocket and carboxy-terminus (RbABC), while the other fusion protein encoded amino acids 780–928, and represented only the carboxy-terminus (RbC). The in vitro translated full-length Rak protein bound efficiently to the RbABC fusion protein, and approximately 5-fold less to the RbC protein (FIG. 5B, upper panel). […] As a control, the Src protein was in vitro translated and subjected to the same binding reaction, and no binding of Src to any portion of Rb was detected (data not shown).

Row | binding result | Binder
1 | no binding | GST-RbC, Rb fusion protein encoding amino acids 780-928 (COOH-terminal domain only) (other, UniProt P06400 780-928, looked up, range 780-928; GST fusion prepared like the Rak fusions; also called RbC protein; Rb-GST fusion protein; not shown: Glutathione S-transferase encoded by the pGEX-4T plasmid (Pharmacia)) SPIPHIPRSPYKFPSSPLRIPGGNIYISPLKSPYKISEGLPTPTKMTPRSRILVSIGESFGTSEKFQKINQMVCNSDRVLKRSAEGSNPPKPLKKLRFDIEGSDEADGSKHLPGESKFQQKLAEMTSTRTRMQKQKMNDSMDTSNKEEK
2 | no binding | GST-RbABC, Rb fusion protein encoding amino acids 379-928 (A/B pocket region and COOH-terminal domain) (other, UniProt P06400 379-928, looked up, range 379-928; GST fusion prepared like the Rak fusions; also called RbABC fusion protein; Rb-GST fusion protein; not shown: Glutathione S-transferase encoded by the pGEX-4T plasmid (Pharmacia)) MNTIQQLMMILNSASDQPSENLISYFNNCTVNPKESILKRVKDIGYIFKEKFAKAVGQGCVEIGSQRYKLGVRLYYRVMESMLKSEEERLSIQNFSKLLNDNIFHMSLLACALEVVMATYSRSTSQNLDSGTDLSFPWILNVLNLKAFDFYKVIESFIKAEGNLTREMIKHLERCEHRIMESLAWLSDSPLFDLIKQSKDREGPTDHLESACPLNLPLQNNHTAADMYLSPVRSPKKKGSTTRVNSTANAETQATSAFQTQKPLKSTSLSLFYKKVYRLAYLRLNTLCERLLSEHPELEHIIWTLFQHTLQNEYELMRDRHLDQIMMCSMYGICKVKNIDLKFKIIVTAYKDLPHAVQETFKRVLIKEEEYDSIIVFYNSVFMQRLKTNILQYASTRPPTLSPIPHIPRSPYKFPSSPLRIPGGNIYISPLKSPYKISEGLPTPTKMTPRSRILVSIGESFGTSEKFQKINQMVCNSDRVLKRSAEGSNPPKPLKKLRFDIEGSDEADGSKHLPGESKFQQKLAEMTSTRTRMQKQKMNDSMDTSNKEEK
